We go through 1 substance from patent publication US20070134215A1.

Bounds are passed on as bounds.

This test has as its target BMP-2. The test is described as follows: cell-based or functional assay.

In turn, “Recombinant Mouse Noggin/Fc Chimera protein (R&D Systems) (from UniProt P97466 28-232) (Fc fusion)” gave an appearance of beating EBs (myocardial differentiation-inducing effect of Noggin protein at 150 ng/mL on ES cells, floating culture) of more than 5 ng/mL.
